What follows are binders tested against endophilin SH3 (SH3G2_HUMAN), Q99962 (assay: SPOT array).

Row | normalised SPOT signal, Boehringer light units (BLU); mean over the file's lines of this peptide | Binder
1 | -0 | EGAVPRRPEDALLL [Q96ML3 90-103]
2 | 14.7 | EERALRRPGHLYLL [Q8WZ07 124-137]
3 | 0 | EHPEPKRPSVDSLV [Q9C0I2 974-987]
4 | 0 | EGHALRRPPPRWLL [Q8WUK7 5-18]
5 | 8260 | EEVVPPRPPLPRSY [CAD38934 123-137]
6 | 1080 | AGNLPSRPPPLSSP [Q96LQ5 87-101]
7 | 5340 | EGPSPARPPRRRTS [Q9Y5L9 2452-2466]
8 | 141 | EFGLPGRPGRPGLN [P39059 904-917]
9 | 1570 | EGAAPRRPGFWGSL [Q92988 19-32]
10 | 82.4 | AALLFLRPPRVRGH [Q9NPN2 39-52]
11 | 2130 | EGNRPKKPPPPSAP [Q9NYR0 332-346]
12 | 1680 | EIMSPRKPPLFLTK [BAC04837 210-224]
13 | 678 | EERPLRRPRPVQRT [Q9H7J2 535-548]
14 | 51.5 | EGISLRRPNSFGIA [O95444 608-621]
15 | 59.8 | EEVPPHKPPTLPLD [Q9BXF3 1468-1482]
16 | 12300 | AGLRPPKPPRPASL [O75190 254-268]
17 | 108 | EIGFPGRPGRPGMN [P39060 984-997]
18 | 21.4 | EGEEPKRPPGISER [Q9NS96 504-517]
19 | 85.5 | EIAKLKRPTALKKV [Q93073 574-587]
20 | 39.5 | EGLAFRRPAEYDPK [O95444 171-184]
21 | 40.3 | EGIPFRRPSTYGIP [P78347 404-417]

Row | normalised SPOT signal, Boehringer light units (BLU); mean over the file's lines of this peptide | Binder
22 | 783 | EHPRLRRPMPWLLL [Q9Y5I4 12-25]
23 | 0 | EEIALERPEKEIRN [Q9H5F4 313-326]
24 | 9880 | EHRPPEKPPRPPRP [Q8TEL4 107-121]
25 | 51.2 | AFVNFRRPEDARAA [Q96T37 218-231]
26 | 21.3 | EEKVPEKPPTPKES [Q9HDC5 18-32]
27 | 43.4 | EHREPKRPEIIFLP [O43196 121-134]
28 | 112 | EGVPFRRPSTFGIP [P78347 776-789]
29 | 67 | EKDHIRRPMNAFMI [Q9UEG5 39-52]
30 | 82 | EHRPLKRPRPRLGP [Q9UHV6 43-56]
31 | 26.3 | EEEPPRRPRARSSE [O60301 1-14]
32 | 150 | EEEELARPPREQGQ [Q14767 745-758]
33 | 70 | EGQQLVRPKKLPLI [Q9H2U9 25-38]
34 | 2060 | EGHRPRRPRGALPP [Q9UGQ7 111-124]
35 | 4.9 | EGTEPRRPRAGPEE [P18887 302-315]
36 | 73.1 | EGTYPRRPGSSPKV [Q9UJX9 322-335]
37 | 201 | EESLPKRPLGKHSK [Q8WYQ9 81-94]
38 | 154 | AFPRPKRPAPAQEA [Q9BQ84 248-261]
39 | 18200 | EGNKPQRPPPPRRP [Q04118 252-266]
40 | 62.9 | EIPKPIKPPTYQVL [O60504 440-454]
41 | 508 | EEPKILRPPRRPRK [Q9NYS8 1484-1497]
42 | 443 | EGSMLRRPRTSSQH [Q92538 1455-1468]

Molecular target: T1, amphyphisin SH3 (AMPH_HUMAN), P49418
T1 chain: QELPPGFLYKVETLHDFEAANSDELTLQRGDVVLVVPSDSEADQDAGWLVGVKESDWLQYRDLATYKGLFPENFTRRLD
Test: SPOT array

Row | normalised SPOT signal, Boehringer light units (BLU); mean over the file's lines of this peptide | Binder
43 | 72.5 | EGAVPRRPEDALLL [Q96ML3 90-103]
44 | 38.2 | EERALRRPGHLYLL [Q8WZ07 124-137]
45 | 50.2 | EHPEPKRPSVDSLV [Q9C0I2 974-987]
46 | 66.6 | EGHALRRPPPRWLL [Q8WUK7 5-18]
47 | 109 | EEVVPPRPPLPRSY [CAD38934 123-137]
48 | 59.7 | AGNLPSRPPPLSSP [Q96LQ5 87-101]
49 | 16700 | EGPSPARPPRRRTS [Q9Y5L9 2452-2466]
50 | 282 | EFGLPGRPGRPGLN [P39059 904-917]
51 | 29.7 | EGAAPRRPGFWGSL [Q92988 19-32]
52 | 8020 | AALLFLRPPRVRGH [Q9NPN2 39-52]
53 | 53.4 | EGNRPKKPPPPSAP [Q9NYR0 332-346]
54 | 136 | EIMSPRKPPLFLTK [BAC04837 210-224]
55 | 836 | EERPLRRPRPVQRT [Q9H7J2 535-548]
56 | 27.1 | EGISLRRPNSFGIA [O95444 608-621]
57 | 28.7 | EEVPPHKPPTLPLD [Q9BXF3 1468-1482]
58 | 2380 | AGLRPPKPPRPASL [O75190 254-268]
59 | 139 | EIGFPGRPGRPGMN [P39060 984-997]
60 | 23.2 | EGEEPKRPPGISER [Q9NS96 504-517]
61 | 16.3 | EIAKLKRPTALKKV [Q93073 574-587]
62 | 29.1 | EGLAFRRPAEYDPK [O95444 171-184]
63 | 42.6 | EGIPFRRPSTYGIP [P78347 404-417]

Row | normalised SPOT signal, Boehringer light units (BLU); mean over the file's lines of this peptide | Binder
64 | 85.8 | EHPRLRRPMPWLLL [Q9Y5I4 12-25]
65 | 122 | EEIALERPEKEIRN [Q9H5F4 313-326]
66 | 9830 | EHRPPEKPPRPPRP [Q8TEL4 107-121]
67 | 17.2 | AFVNFRRPEDARAA [Q96T37 218-231]
68 | 25 | EEKVPEKPPTPKES [Q9HDC5 18-32]
69 | 31.2 | EHREPKRPEIIFLP [O43196 121-134]
70 | 31.2 | EGVPFRRPSTFGIP [P78347 776-789]
71 | 30.2 | EKDHIRRPMNAFMI [Q9UEG5 39-52]
72 | 22 | EHRPLKRPRPRLGP [Q9UHV6 43-56]
73 | 4.2 | EEEPPRRPRARSSE [O60301 1-14]
74 | 154 | EEEELARPPREQGQ [Q14767 745-758]
75 | 87.3 | EGQQLVRPKKLPLI [Q9H2U9 25-38]
76 | 27.1 | EGHRPRRPRGALPP [Q9UGQ7 111-124]
77 | 36.7 | EGTEPRRPRAGPEE [P18887 302-315]
78 | 54.8 | EGTYPRRPGSSPKV [Q9UJX9 322-335]
79 | 32.4 | EESLPKRPLGKHSK [Q8WYQ9 81-94]
80 | 145 | AFPRPKRPAPAQEA [Q9BQ84 248-261]
81 | 5630 | EGNKPQRPPPPRRP [Q04118 252-266]
82 | 52.6 | EIPKPIKPPTYQVL [O60504 440-454]
83 | 12700 | EEPKILRPPRRPRK [Q9NYS8 1484-1497]
84 | 115 | EGSMLRRPRTSSQH [Q92538 1455-1468]

— paper PMC314469, “Protein Interaction Networks by Proteome Peptide Scanning” (PLoS Biology, 2004)
